Measured values taken from the supplement of paper PMC11316812.
± gives the standard deviation of the averaged measurements.

How the values were obtained:
[1] = test system: hTERT-HMEC; assay: percentage of EdU-negative (G0-arrested) nuclei per well, 72 h; higher = more G0 arrest; conditions: reference: sequence is the full UniProt precursor, the tested protein was the secreted form or ectodomain
[2] = test system: MCF7; assay: as above; conditions: reference: sequence is the full UniProt precursor, the tested protein was the secreted form or ectodomain
[3] = protein concentration 0.02025 µM
[4] = protein concentration 0.2025 µM
[5] = protein concentration 0.0225 µM
[6] = protein concentration 0.01975 µM
[7] = protein concentration 0.1975 µM
[8] = protein concentration 0.0079375 µM
[9] = protein concentration 0.00885714 µM
[10] = protein concentration 0.0357143 µM
[11] = protein concentration 0.079375 µM
[12] = protein concentration 0.0885714 µM
[13] = protein concentration 0.357143 µM
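Note: secreted proteins added to cultured cells, EdU pulse at the end, nuclei found by Hoechst imaging, EdU status from nuclear versus surrounding ring intensity ratio, PBS as neutral control.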

Sequence: MKPATGLWVWVSLLVAAGTVQPSDSQSVCAGTENKLSSLSDLEQQYRALRKYYENCEVVMGNLEITSIEHNRDLSFLRSVREVTGYVLVALNQFRYLPLENLRIIRGTKLYEDRYALAIFLNYRKDGNFGLQELGLKNLTEILNGGVYVDQNKFLCYADTIHWQDIVRNPWPSNLTLVSTNGSSGCGRCHKSCTGRCWGPTENHCQTLTRTVCAEQCDGRCYGPYVSDCCHRECAGGCSGPKDTDCFACMNFNDSGACVTQCPQTFVYNPTTFQLEHNFNAKYTYGAFCVKKCPHNFVVDSSSCVRACPSSKMEVEENGIKMCKPCTDICPKACDGIGTGSLMSAQTVDSSNIDKFINCTKINGNLIFLVTGIHGDPYNAIEAIDPEKLNVFRTVREITGFLNIQSWPPNMTDFSVFSNLVTIGGRVLYSGLSLLILKQQGITSLQFQSLKEISAGNIYITDNSNLCYYHTINWTTLFSTINQRIVIRDNRKAENCTAEGMVCNHLCSSDGCWGPGPDQCLSCRRFSRGRICIESCNLYDGEFREFENGSICVECDPQCEKMEDGLLTCHGPGPDNCTKCSHFKDGPNCVEKCPDGLQGANSFIFKYADPDRECHPCHPNCTQGCNGPTSHDCIYYPWTGHSTLPQHARTPLIAAGVIGGLFILVIVGLTFAVYVRRKSIKKKRALRRFLETELVEPLTPSGTAPNQAQLRILKETELKRVKVLGSGAFGTVYKGIWVPEGETVKIPVAIKILNETTGPKANVEFMDEALIMASMDHPHLVRLLGVCLSPTIQLVTQLMPHGCLLEYVHEHKDNIGSQLLLNWCVQIAKGMMYLEERRLVHRDLAARNVLVKSPNHVKITDFGLARLLEGDEKEYNADGGKMPIKWMALECIHYRKFTHQSDVWSYGVTIWELMTFGGKPYDGIPTREIPDLLEKGERLPQPPICTIDVYMVMVKCWMIDADSRPKFKELAAEFSRMARDPQRYLVIQGDDRMKLPSPNDSKFFQNLLDEEDLEDMMDAEEYLVPQAFNIPPPIYTSRARIDSNRSEIGHSPPPAYTPMSGNQFVYRDGGFAAEQGVSVPYRAPTSTIPEAPVAQGATAEIFDDSCCNGTLRKPVAPHVQEDSSTQRYSADPTVFAPERSPRGELDEEGYMTPMRDKPKQEYLNPVEENPFVSRRKNGDLQALDNPEYHNASNGPPKAEDEYVNEPLYLNTFANTLGKAEYLKNNILSMPEKAKKAFDNPDYWNHSLPPRSTLQHPDYLQEYSTKYFYKQNGRIRPIVAENPEYLSEFSLKPGTVLPPPPYRHRNTVV
- percentage of EdU-negative [1, 3]: 4.75 ± 0.55%
- percentage of EdU-negative [1, 4]: 7.8 ± 0.72%
- percentage of EdU-negative [2, 3]: 26.2 ± 1.2%
- percentage of EdU-negative [2, 4]: 25.4 ± 1.2%

Sequence: MKPLLVVFVFLFLWDPVLAGINSLSSEMHKKCYKNGICRLECYESEMLVAYCMFQLECCVKGNPAP [Q4QY38]
- percentage of EdU-negative [1, 5]: 4.56 ± 0.45%
- percentage of EdU-negative ([1]; protein concentration 0.225 µM): 5.39 ± 1.7%
- percentage of EdU-negative [2, 5]: 26.33 ± 0.082%
- percentage of EdU-negative ([2]; protein concentration 0.225 µM): 27 ± 0.67%

Sequence: MKPNIIFVLSLLLILEKQAAVMGQKGGSKGRLPSEFSQFPHGQKGQHYSGQKGKQQTESKGSFSIQYTYHVDANDHDQSRKSQQYDLNALHKTTKSQRHLGGSQQLLHNKQEGRDHDKSKGHFHRVVIHHKGGKAHRGTQNPSQDQGNSPSGKGISSQYSNTEERLWVHGLSKEQTSVSGAQKGRKQGGSQSSYVLQTEELVANKQQRETKNSHQNKGHYQNVVEVREEHSSKVQTSLCPAHQDKLQHGSKDIFSTQDELLVYNKNQHQTKNLNQDQQHGRKANKISYQSSSTEERRLHYGENGVQKDVSQSSIYSQTEEKAQGKSQKQITIPSQEQEHSQKANKISYQSSSTEERRLHYGENGVQKDVSQRSIYSQTEKLVAGKSQIQAPNPKQEPWHGENAKGESGQSTNREQDLLSHEQKGRHQHGSHGGLDIVIIEQEDDSDRHLAQHLNNDRNPLFT
- percentage of EdU-negative ([1]; protein concentration 0.005 µM): 6.42 ± 0.18%
- percentage of EdU-negative ([1]; protein concentration 0.05 µM): 6.06 ± 1.2%
- percentage of EdU-negative ([2]; protein concentration 0.005 µM): 28.4 ± 1.1%
- percentage of EdU-negative ([2]; protein concentration 0.05 µM): 25.85 ± 0.061%

Sequence: MKPPFLLALVVCSVVSTNLKMVSKRNSVDGCIDWSVDLKTYMALAGEPVRVKCALFYSYIRTNYSTAQSTGLRLMWYKNKGDLEEPIIFSEVRMSKEEDSIWFHSAEAQDSGFYTCVLRNSTYCMKVSMSLTVAENESGLCYNSRIRYLEKSEVTKRKEISCPDMDDFKKSDQEPDVVWYKECKPKMWRSIIIQKGNALLIQEVQEEDGGNYTCELKYEGKLVRRTTELKVTALLTDKPPKPLFPMENQPSVIDVQLGKPLNIPCKAFFGFSGESGPMIYWMKGEKFIEELAGHIREGEIRLLKEHLGEKEVELALIFDSVVEADLANYTCHVENRNGRKHASVLLRKKDLIYKIELAGGLGAIFLLLVLLVVIYKCYNIELMLFYRQHFGADETNDDNKEYDAYLSYTKVDQDTLDCDNPEEEQFALEVLPDVLEKHYGYKLFIPERDLIPSGTYMEDLTRYVEQSRRLIIVLTPDYILRRGWSIFELESRLHNMLVSGEIKVILIECTELKGKVNCQEVESLKRSIKLLSLIKWKGSKSSKLNSKFWKHLVYEMPIKKKEMLPRCHVLDSAEQGLFGELQPIPSIAMTSTSATLVSSQADLPEFHPSDSMQIRHCCRGYKHEIPATTLPVPSLGNHHTYCNLPLTLLNGQLPLNNTLKDTQEFHRNSSLLPLSSKELSFTSDIW [Q9NP60]
- percentage of EdU-negative [1, 6]: 4.91 ± 0.99%
- percentage of EdU-negative [1, 7]: 8.95 ± 0.26%
- percentage of EdU-negative [2, 6]: 24.9 ± 2.6%
- percentage of EdU-negative [2, 7]: 26.8 ± 1.9%

Sequence: MKPPRPVRTCSKVLVLLSLLAIHQTTTAEKNGIDIYSLTVDSRVSSRFAHTVVTSRVVNRANTVQEATFQMELPKKAFITNFSMIIDGMTYPGIIKEKAEAQAQYSAAVAKGKSAGLVKATGRNMEQFQVSVSVAPNAKITFELVYEELLKRRLGVYELLLKVRPQQLVKHLQMDIHIFEPQGISFLETESTFMTNQLVDALTTWQNKTKAHIRFKPTLSQQQKSPEQQETVLDGNLIIRYDVDRAISGGSIQIENGYFVHYFAPEGLTTMPKNVVFVIDKSGSMSGRKIQQTREALIKILDDLSPRDQFNLIVFSTEATQWRPSLVPASAENVNKARSFAAGIQALGGTNINDAMLMAVQLLDSSNQEERLPEGSVSLIILLTDGDPTVGETNPRSIQNNVREAVSGRYSLFCLGFGFDVSYAFLEKLALDNGGLARRIHEDSDSALQLQDFYQEVANPLLTAVTFEYPSNAVEEVTQNNFRLLFKGSEMVVAGKLQDRGPDVLTATVSGKLPTQNITFQTESSVAEQEAEFQSPKYIFHNFMERLWAYLTIQQLLEQTVSASDADQQALRNQALNLSLAYSFVTPLTSMVVTKPDDQEQSQVAEKPMEGESRNRNVHSGSTFFKYYLQGAKIPKPEASFSPRRGWNRQAGAAGSRMNFRPGVLSSRQLGLPGPPDVPDHAAYHPFRRLAILPASAPPATSNPDPAVSRVMNMKIEETTMTTQTPAPIQAPSAILPLPGQSVERLCVDPRHRQGPVNLLSDPEQGVEVTGQYEREKAGFSWIEVTFKNPLVWVHASPEHVVVTRNRRSSAYKWKETLFSVMPGLKMTMDKTGLLLLSDPDKVTIGLLFWDGRGEGLRLLLRDTDRFSSHVGGTLGQFYQEVLWGSPAASDDGRRTLRVQGNDHSATRERRLDYQEGPPGVEISCWSVEL
- percentage of EdU-negative [1, 8]: 4.26 ± 0.31%
- percentage of EdU-negative [1, 9]: 5.26 ± 0.59%
- percentage of EdU-negative [1, 10]: 4.65 ± 0.14%
- percentage of EdU-negative [1, 11]: 6.25 ± 0.86%
- percentage of EdU-negative [1, 12]: 5.26 ± 0.17%
- percentage of EdU-negative [1, 13]: 5.86 ± 0.71%
- percentage of EdU-negative [2, 8]: 26.1 ± 0.6%
- percentage of EdU-negative [2, 9]: 24.7 ± 1.9%
- percentage of EdU-negative [2, 10]: 25.598 ± 0.0074%
- percentage of EdU-negative [2, 11]: 27.8 ± 0.46%
- percentage of EdU-negative [2, 12]: 22.7 ± 1.4%
- percentage of EdU-negative [2, 13]: 24.7 ± 1.2%
